Here are results for six variants from FireProtDB (doi:10.1021/bi9815243).

B1: Guanyl-specific ribonuclease T1, P00651 (parent)
chain: MMYSKLLTLTTLLLPTALALPSLVERACDYTCGSNCYSSSDVSTAQAAGYQLHEDGETVGSNSYPHKYNNYEGFDFSVSSPYYEWPILSSGDVYSGGSPGADRVVFNENNQLAGVITHTGASGNNFVECT
B2: Guanyl-specific ribonuclease Sa, P05798 (parent)
chain: DVSGTVCLSALPPEATDTLNLIASDGPFPYSQDGVVFQNRESVLPTQSYGYYHEYTVITPGARTRGTRRIITGEATQEDYYTGDHYATFSLIDQTC

The variants in the first series derive from B1. Conditions: Aspergillus oryzae (strain ATCC 42149 / RIB 40); pH 7; 25 °C; Urea; CD; MOPS 30 mM; reversible: yes (>95%); structure 1RN1; whole UniProt chain shown.
Take N70A: the “ddG of mutation (higher = less stable)” value came to 2 kcal/mol, the denaturant m value was 1.17 kcal/mol/M, the “denaturant midpoint (higher = more stable)” value (shortened to “denaturant midpoint”) turned out to be 3.51 M and the unfolding free energy stood at 4.12 kcal/mol.
The like results for N70S were, in that order, 1.9 kcal/mol, 1.22 kcal/mol/M, 3.6 M and 4.39 kcal/mol.
Consider N70D, for which the “ddG of mutation (higher = less stable)” value is 2 kcal/mol, the denaturant m value stood at 1.25 kcal/mol/M, the “denaturant midpoint” value was determined as 3.54 M and the unfolding free energy was found to be 4.43 kcal/mol.

Staying with this series, now noted: Aspergillus oryzae (strain ATCC 42149 / RIB 40); pH 7; 25 °C; Urea; Fluorescence; MOPS 30 mM; transition: 2; reversible: Yes; structure 1RN1; whole UniProt chain shown.
Take N70A: the “ddG of mutation (higher = less stable)” value stood at 2 kcal/mol, the denaturant m value is 1.17 kcal/mol/M, the “denaturant midpoint” value was found to be 3.51 M and the unfolding free energy is 4.12 kcal/mol.
The matching figures for N70S: 1.9 kcal/mol, 1.22 kcal/mol/M, 3.6 M and 4.39 kcal/mol.
The matching figures for N70D: 2 kcal/mol, 1.25 kcal/mol/M, 3.54 M and 4.43 kcal/mol.

The series is the same for the next values; noted with them: Aspergillus oryzae (strain ATCC 42149 / RIB 40); pH 7; 50.8 °C; Thermal; CD; MOPS 30 mM; reversible: yes (>95%); structure 1RN1; whole UniProt chain shown.
Consider N70A, for which the “ddG of mutation (higher = less stable)” value came to 1.6 kcal/mol.
N70S: the “ddG of mutation (higher = less stable)” value came out at 1.5 kcal/mol.
Still for that read-out and setting: the value for N70D was 1.6 kcal/mol.

Still in this series, the particulars now being: Aspergillus oryzae (strain ATCC 42149 / RIB 40); pH 7; Thermal; CD; MOPS 30 mM; reversible: yes (>95%); structure 1RN1; whole UniProt chain shown.
Consider N70A, for which the Tm worked out at 45.6 °C; the “change of melting temperature, mutant - wild type (higher = more stable)” value (shortened to “change of melting temperature, mutant”) is -5.2 °C; the “unfolding enthalpy (van 't Hoff)” value was found to be 86.8 kcal/mol.
The like results for N70S were, in that order, 45.8 °C, -5 °C and 89.6 kcal/mol.
The like results for N70D were, in that order, 45.3 °C, -5.5 °C and 84.2 kcal/mol.

Staying with this series, now noted: Aspergillus oryzae (strain ATCC 42149 / RIB 40); pH 7; Thermal; CD; MOPS 30 mM; transition: 2; reversible: Yes; structure 1RN1; whole UniProt chain shown.
Turning to N70A, the Tm came to 45.6 °C; the “change of melting temperature, mutant” value is -5.2 °C; the “unfolding enthalpy (van 't Hoff)” value stood at 86.8 kcal/mol.
The like results for N70S were, in that order, 45.8 °C, -5 °C and 89.6 kcal/mol.

Still in this series, the particulars now being: Aspergillus oryzae (strain ATCC 42149 / RIB 40); pH 2.7; 25 °C; Urea; CD; glycine 30 mM; reversible: yes (>95%); structure 1RN1; whole UniProt chain shown.
Take N70D: the “ddG of mutation (higher = less stable)” value was determined as 0.5 kcal/mol, the denaturant m value is 1.66 kcal/mol/M, the “denaturant midpoint” value was found to be 3.45 M and the unfolding free energy came to 5.71 kcal/mol.

Still in this series, the particulars now being: Aspergillus oryzae (strain ATCC 42149 / RIB 40); pH 2.7; 25 °C; Urea; Fluorescence; glycine 30 mM; transition: 2; reversible: Yes; structure 1RN1; whole UniProt chain shown.
On to N70D, for which the denaturant m value amounted to 1.66 kcal/mol/M, the “denaturant midpoint” value was determined as 3.45 M and the unfolding free energy came to 5.71 kcal/mol.

The variants in the next series derive from B2. The following applies: Kitasatospora aureofaciens; pH 7; 48.4 °C; Thermal; CD; MOPS 30 mM; reversible: yes (>95%); structure 1RGG; whole UniProt chain shown.
Turning to N39S, the “ddG of mutation (higher = less stable)” value was 2.3 kcal/mol.
The same measure, in the same setting: the value for N39A was 2.2 kcal/mol; that for N39D was 1.5 kcal/mol.

The same series, now with this note: Kitasatospora aureofaciens; pH 7; Thermal; CD; MOPS 30 mM; reversible: yes (>95%); structure 1RGG; whole UniProt chain shown.
In the case of N39S, the Tm came out at 40.4 °C; the “change of melting temperature, mutant” value was -8 °C; the “unfolding enthalpy (van 't Hoff)” value was found to be 73.5 kcal/mol.
Consider N39A, for which the Tm came out at 40.8 °C; the “change of melting temperature, mutant” value is -7.6 °C; the “unfolding enthalpy (van 't Hoff)” value stood at 70.4 kcal/mol.
With N39D, the Tm amounted to 43.2 °C; the “change of melting temperature, mutant” value was -5.2 °C; the “unfolding enthalpy (van 't Hoff)” value is 83.5 kcal/mol.

Staying with this series, now noted: Kitasatospora aureofaciens; pH 7; Thermal; CD; MOPS 30 mM; transition: 2; reversible: Yes; structure 1RGG; whole UniProt chain shown.
On to N39S, for which the Tm was 40.4 °C; the “change of melting temperature, mutant” value is -8 °C; the “unfolding enthalpy (van 't Hoff)” value amounted to 73.5 kcal/mol.
With N39A, the Tm was determined as 40.8 °C; the “change of melting temperature, mutant” value is -7.6 °C; the “unfolding enthalpy (van 't Hoff)” value amounted to 70.4 kcal/mol.
The matching figures for N39D: 43.2 °C, -5.2 °C and 83.5 kcal/mol.

Still in this series, the particulars now being: Kitasatospora aureofaciens; pH 2; Thermal; CD; MOPS 30 mM; transition: 2; reversible: Yes; structure 1RGG; whole UniProt chain shown.
For the variant N39D, the Tm was found to be 23.3 °C; the “change of melting temperature, mutant” value is -4.7 °C; the “unfolding enthalpy (van 't Hoff)” value was determined as 50.3 kcal/mol.
